Paper PMC5786021, “A dynamic allosteric pathway underlies Rad50 ABC ATPase function in DNA repair” (Scientific Reports, 2018)

Legend:
Test in all cases: reconstitution and co-purification by ion-exchange chromatography; Rad50^NBD mixed with a slight excess of Mre11^HLH, heated at 60 °C for 10 min, cooled, complex purified on a HiTrap SP HP column; complex then used for methyl-TROSY NMR at 50 °C
Settings in all cases: both partners purified
[1] = target: T1, P. furiosus Rad50^NBD (V157M) (P. furiosus, UniProt P58301 1-195; P58301 709-882, V157M)
T1 construct: Rad50, Pyrococcus furiosus, N-terminal ABC-ATPase sub-domain, residues 1-195; flexible linker that replaces the coiled-coil and Zn-hook; Rad50, Pyrococcus furiosus, C-terminal ABC-ATPase sub-domain, residues 709-882; Point mutation made by Quikchange in the Rad50^NBD construct; source: E. coli BL21(DE3) C41, purified (HisTrap, HiTrap SP, Superdex 200)

[2] = target: T2, P. furiosus Rad50^NBD (R805E) (P. furiosus, UniProt P58301 1-195; P58301 709-882, R805E)
T2 construct: Rad50, Pyrococcus furiosus, N-terminal ABC-ATPase sub-domain, residues 1-195; flexible linker that replaces the coiled-coil and Zn-hook; Rad50, Pyrococcus furiosus, C-terminal ABC-ATPase sub-domain, residues 709-882; Point mutation made by Quikchange in the Rad50^NBD construct; also called basic switch mutant; source: E. coli BL21(DE3) C41, purified (HisTrap, HiTrap SP, Superdex 200)

[3] = target: T3, P. furiosus Rad50^NBD (V156M) (P. furiosus, UniProt P58301 1-195; P58301 709-882, V156M)
T3 construct: Rad50, Pyrococcus furiosus, N-terminal ABC-ATPase sub-domain, residues 1-195; flexible linker that replaces the coiled-coil and Zn-hook; Rad50, Pyrococcus furiosus, C-terminal ABC-ATPase sub-domain, residues 709-882; Point mutation made by Quikchange in the Rad50^NBD construct; source: E. coli BL21(DE3) C41, purified (HisTrap, HiTrap SP, Superdex 200)

[4] = target: T4, P. furiosus Rad50^NBD (V160M) (P. furiosus, UniProt P58301 1-195; P58301 709-882, V160M)
T4 construct: Rad50, Pyrococcus furiosus, N-terminal ABC-ATPase sub-domain, residues 1-195; flexible linker that replaces the coiled-coil and Zn-hook; Rad50, Pyrococcus furiosus, C-terminal ABC-ATPase sub-domain, residues 709-882; Point mutation made by Quikchange in the Rad50^NBD construct; source: E. coli BL21(DE3) C41, purified (HisTrap, HiTrap SP, Superdex 200)

Measured: binding result

T3 sequence (P58301 other isoform, or with tags, fused parts or gaps V156M | V156M | V156M V156M): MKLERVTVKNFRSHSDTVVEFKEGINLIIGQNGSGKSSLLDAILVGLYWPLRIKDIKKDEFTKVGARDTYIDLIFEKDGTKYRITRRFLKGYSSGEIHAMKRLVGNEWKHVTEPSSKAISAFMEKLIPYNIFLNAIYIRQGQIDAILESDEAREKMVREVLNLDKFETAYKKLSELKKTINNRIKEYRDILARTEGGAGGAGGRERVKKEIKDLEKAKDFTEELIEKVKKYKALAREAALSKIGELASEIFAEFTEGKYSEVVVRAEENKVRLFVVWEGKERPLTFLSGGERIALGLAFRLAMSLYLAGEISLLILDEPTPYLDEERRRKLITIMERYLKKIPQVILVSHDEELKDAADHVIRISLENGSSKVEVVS
T4 sequence (P58301 other isoform, or with tags, fused parts or gaps V160M | V160M | V160M V160M): as the sequence (P58301 other isoform, or with tags, fused parts or gaps V156M | V156M | V156M V156M) above, with M156V, V160M counted along it
T2 sequence (P58301 other isoform, or with tags, fused parts or gaps R805E | R805E | R805E R805E): as the sequence (P58301 other isoform, or with tags, fused parts or gaps V156M | V156M | V156M V156M) above, with M156V, R300E counted along it
T1 sequence (P58301 other isoform, or with tags, fused parts or gaps V157M | V157M | V157M V157M): as the sequence (P58301 other isoform, or with tags, fused parts or gaps V156M | V156M | V156M V156M) above, with M156V, V157M counted along it

B1: P. furiosus Mre11 helix-loop-helix domain (Mre11^HLH, aa344-426) (domain or fragment)
chain: not shown
notes: Mre11, Pyrococcus furiosus, helix-loop-helix domain, residues 344-426, sub-cloned from codon optimized full-length Pf Mre11; Protonated (unlabelled) in the NMR samples; source: E. coli BL21(DE3) C41, purified (HisTrap, HiTrap Phenyl HP); not shown: NusA, N-terminal, cleaved; His6, N-terminal, cleaved
binds: all assays above
